Among the data in publication PMC9062432 are stoichiometry N values, retold here.

The target of the experiment is AphC, extradiol dioxygenase from Rhodococcus jostii RHA1 (Rhodococcus jostii RHA1). Description: crystal structure.

For “AphC, extradiol dioxygenase from Rhodococcus jostii RHA1 (enzyme)”, the stoichiometry N turned out to be 4.
